# Experimental data published in patent US20230242902A1, “A HIGHLY ERROR-PRONE […] R[…] FOR TARGETED CONTINUOUS EVOLUTION IN VIVO” (The Regents of the University of California, priority 2017, published 2023).
# Test system: p1
# Test: p1 copy number by p1-encoded mKate2 fluorescence
# Format: cell-based, S. cerevisiae
# Details: OR-Y24, measured in triplicate
# Method in brief: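 Read-out is mKate2 fluorescence of saturated OR-Y24 cultures, measured by flow cytometry or by plate reader with OD600 normalization. Flow values were converted by a qPCR-derived linear calibration; plate values were scaled to a w.t. TP-DNAP1 control.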
row,Molecule,Mean fold-increase over w.t. (p1 copy number) [fold]
1,N309C: TP-DNAP1 variant (protein) MDYKDKALNDLRNVYADFDSLPLDFRQILIKDRATLLQKEDVEKKILERQEDAKKYAEYLKQSEIPERISLPNIKRHKGVSISFEETSEDMVLEPRPFIFDGLNIRCFRRETIFSLKNKILNMVKESSSFKNVSRQSVSFMYFKIFNKGKVIASTKSVNIYEDKIDERLEDLCNNFDDVLKKIIDVTYGYESLFVSETYSYVIFYAKSIYFPQPRCVNNWGNNIPNILTFDSFKLFTANKNNVSCIKQCSRFLWQKDFNTLEEMIEYKNGNICIVTPQLHINDVRDIKSFNDIRLYSESPIKTFSVIDCTITYLFYFKEHLGVIFNITKSRHDRRVTKFSPLSKFSDVKNITVCFDIESYFDPEKESNQVNIPFICCASIIYNKVIGNIVDFEGRDCVAQMIEYVVDICGELNISSVELIAHNGGGYDFHYILSSMYNPAAIKNILIRNNSFISFNFAHDGVKFSVKDSYSFLLCSLANASKAFLNEETFKKTDFPHHDLKTADDLYKVYKEWSSVNTEINHVVEKEKLLITSEHIVNFTKNDKSKTLIEWSKDYCRNDVLVLSKVWLEFKNAVEDIFNCELVDQTMTLAGLSYKLFQANMPFDVELRHPNKEDYFNMREALIGGRCISVNGIYKDVLCLDVKSLYPASMAFYDQPYGSFKRVSSRPKDELGIYYVRVTPNRNNKSNFFPIRSHNKITYNNFEESTYIAWYTNVDIDIGLSEGHNIEYIPFDSYGNIGYSWSKKGKIFEKYIKDVLYKLKIKYEKQNNKVKRNVIKIIMNSLWGKFAQKWVNFEYFIKSEDDIDFESEEAYKIWDTDFMLIKKIKESTYSSKPIQNGVFTLSWARYHMKSIWDAGAKEGAECIYSDTDSIFVHKEHFKKNAKFMLNGLKVPIIGSEVGQLELECEFDKLLCAGKKQYMGFYTYFQDGKPCIKEKKRFKGIPSNYIIPELYAHLLSGADKEAKIQFLKFRREWGSVKGYIENKTVKAT,2.25
2,T310N: TP-DNAP1 variant (protein) MDYKDKALNDLRNVYADFDSLPLDFRQILIKDRATLLQKEDVEKKILERQEDAKKYAEYLKQSEIPERISLPNIKRHKGVSISFEETSEDMVLEPRPFIFDGLNIRCFRRETIFSLKNKILNMVKESSSFKNVSRQSVSFMYFKIFNKGKVIASTKSVNIYEDKIDERLEDLCNNFDDVLKKIIDVTYGYESLFVSETYSYVIFYAKSIYFPQPRCVNNWGNNIPNILTFDSFKLFTANKNNVSCIKQCSRFLWQKDFNTLEEMIEYKNGNICIVTPQLHINDVRDIKSFNDIRLYSESPIKTFSVIDNNITYLFYFKEHLGVIFNITKSRHDRRVTKFSPLSKFSDVKNITVCFDIESYFDPEKESNQVNIPFICCASIIYNKVIGNIVDFEGRDCVAQMIEYVVDICGELNISSVELIAHNGGGYDFHYILSSMYNPAAIKNILIRNNSFISFNFAHDGVKFSVKDSYSFLLCSLANASKAFLNEETFKKTDFPHHDLKTADDLYKVYKEWSSVNTEINHVVEKEKLLITSEHIVNFTKNDKSKTLIEWSKDYCRNDVLVLSKVWLEFKNAVEDIFNCELVDQTMTLAGLSYKLFQANMPFDVELRHPNKEDYFNMREALIGGRCISVNGIYKDVLCLDVKSLYPASMAFYDQPYGSFKRVSSRPKDELGIYYVRVTPNRNNKSNFFPIRSHNKITYNNFEESTYIAWYTNVDIDIGLSEGHNIEYIPFDSYGNIGYSWSKKGKIFEKYIKDVLYKLKIKYEKQNNKVKRNVIKIIMNSLWGKFAQKWVNFEYFIKSEDDIDFESEEAYKIWDTDFMLIKKIKESTYSSKPIQNGVFTLSWARYHMKSIWDAGAKEGAECIYSDTDSIFVHKEHFKKNAKFMLNGLKVPIIGSEVGQLELECEFDKLLCAGKKQYMGFYTYFQDGKPCIKEKKRFKGIPSNYIIPELYAHLLSGADKEAKIQFLKFRREWGSVKGYIENKTVKAT,2.83
3,T310E: TP-DNAP1 variant (protein) MDYKDKALNDLRNVYADFDSLPLDFRQILIKDRATLLQKEDVEKKILERQEDAKKYAEYLKQSEIPERISLPNIKRHKGVSISFEETSEDMVLEPRPFIFDGLNIRCFRRETIFSLKNKILNMVKESSSFKNVSRQSVSFMYFKIFNKGKVIASTKSVNIYEDKIDERLEDLCNNFDDVLKKIIDVTYGYESLFVSETYSYVIFYAKSIYFPQPRCVNNWGNNIPNILTFDSFKLFTANKNNVSCIKQCSRFLWQKDFNTLEEMIEYKNGNICIVTPQLHINDVRDIKSFNDIRLYSESPIKTFSVIDNEITYLFYFKEHLGVIFNITKSRHDRRVTKFSPLSKFSDVKNITVCFDIESYFDPEKESNQVNIPFICCASIIYNKVIGNIVDFEGRDCVAQMIEYVVDICGELNISSVELIAHNGGGYDFHYILSSMYNPAAIKNILIRNNSFISFNFAHDGVKFSVKDSYSFLLCSLANASKAFLNEETFKKTDFPHHDLKTADDLYKVYKEWSSVNTEINHVVEKEKLLITSEHIVNFTKNDKSKTLIEWSKDYCRNDVLVLSKVWLEFKNAVEDIFNCELVDQTMTLAGLSYKLFQANMPFDVELRHPNKEDYFNMREALIGGRCISVNGIYKDVLCLDVKSLYPASMAFYDQPYGSFKRVSSRPKDELGIYYVRVTPNRNNKSNFFPIRSHNKITYNNFEESTYIAWYTNVDIDIGLSEGHNIEYIPFDSYGNIGYSWSKKGKIFEKYIKDVLYKLKIKYEKQNNKVKRNVIKIIMNSLWGKFAQKWVNFEYFIKSEDDIDFESEEAYKIWDTDFMLIKKIKESTYSSKPIQNGVFTLSWARYHMKSIWDAGAKEGAECIYSDTDSIFVHKEHFKKNAKFMLNGLKVPIIGSEVGQLELECEFDKLLCAGKKQYMGFYTYFQDGKPCIKEKKRFKGIPSNYIIPELYAHLLSGADKEAKIQFLKFRREWGSVKGYIENKTVKAT,2.37
4,T310D: TP-DNAP1 variant (protein) MDYKDKALNDLRNVYADFDSLPLDFRQILIKDRATLLQKEDVEKKILERQEDAKKYAEYLKQSEIPERISLPNIKRHKGVSISFEETSEDMVLEPRPFIFDGLNIRCFRRETIFSLKNKILNMVKESSSFKNVSRQSVSFMYFKIFNKGKVIASTKSVNIYEDKIDERLEDLCNNFDDVLKKIIDVTYGYESLFVSETYSYVIFYAKSIYFPQPRCVNNWGNNIPNILTFDSFKLFTANKNNVSCIKQCSRFLWQKDFNTLEEMIEYKNGNICIVTPQLHINDVRDIKSFNDIRLYSESPIKTFSVIDNDITYLFYFKEHLGVIFNITKSRHDRRVTKFSPLSKFSDVKNITVCFDIESYFDPEKESNQVNIPFICCASIIYNKVIGNIVDFEGRDCVAQMIEYVVDICGELNISSVELIAHNGGGYDFHYILSSMYNPAAIKNILIRNNSFISFNFAHDGVKFSVKDSYSFLLCSLANASKAFLNEETFKKTDFPHHDLKTADDLYKVYKEWSSVNTEINHVVEKEKLLITSEHIVNFTKNDKSKTLIEWSKDYCRNDVLVLSKVWLEFKNAVEDIFNCELVDQTMTLAGLSYKLFQANMPFDVELRHPNKEDYFNMREALIGGRCISVNGIYKDVLCLDVKSLYPASMAFYDQPYGSFKRVSSRPKDELGIYYVRVTPNRNNKSNFFPIRSHNKITYNNFEESTYIAWYTNVDIDIGLSEGHNIEYIPFDSYGNIGYSWSKKGKIFEKYIKDVLYKLKIKYEKQNNKVKRNVIKIIMNSLWGKFAQKWVNFEYFIKSEDDIDFESEEAYKIWDTDFMLIKKIKESTYSSKPIQNGVFTLSWARYHMKSIWDAGAKEGAECIYSDTDSIFVHKEHFKKNAKFMLNGLKVPIIGSEVGQLELECEFDKLLCAGKKQYMGFYTYFQDGKPCIKEKKRFKGIPSNYIIPELYAHLLSGADKEAKIQFLKFRREWGSVKGYIENKTVKAT,2.64
5,"N309K, I311G: TP-DNAP1 variant (protein) MDYKDKALNDLRNVYADFDSLPLDFRQILIKDRATLLQKEDVEKKILERQEDAKKYAEYLKQSEIPERISLPNIKRHKGVSISFEETSEDMVLEPRPFIFDGLNIRCFRRETIFSLKNKILNMVKESSSFKNVSRQSVSFMYFKIFNKGKVIASTKSVNIYEDKIDERLEDLCNNFDDVLKKIIDVTYGYESLFVSETYSYVIFYAKSIYFPQPRCVNNWGNNIPNILTFDSFKLFTANKNNVSCIKQCSRFLWQKDFNTLEEMIEYKNGNICIVTPQLHINDVRDIKSFNDIRLYSESPIKTFSVIDKTGTYLFYFKEHLGVIFNITKSRHDRRVTKFSPLSKFSDVKNITVCFDIESYFDPEKESNQVNIPFICCASIIYNKVIGNIVDFEGRDCVAQMIEYVVDICGELNISSVELIAHNGGGYDFHYILSSMYNPAAIKNILIRNNSFISFNFAHDGVKFSVKDSYSFLLCSLANASKAFLNEETFKKTDFPHHDLKTADDLYKVYKEWSSVNTEINHVVEKEKLLITSEHIVNFTKNDKSKTLIEWSKDYCRNDVLVLSKVWLEFKNAVEDIFNCELVDQTMTLAGLSYKLFQANMPFDVELRHPNKEDYFNMREALIGGRCISVNGIYKDVLCLDVKSLYPASMAFYDQPYGSFKRVSSRPKDELGIYYVRVTPNRNNKSNFFPIRSHNKITYNNFEESTYIAWYTNVDIDIGLSEGHNIEYIPFDSYGNIGYSWSKKGKIFEKYIKDVLYKLKIKYEKQNNKVKRNVIKIIMNSLWGKFAQKWVNFEYFIKSEDDIDFESEEAYKIWDTDFMLIKKIKESTYSSKPIQNGVFTLSWARYHMKSIWDAGAKEGAECIYSDTDSIFVHKEHFKKNAKFMLNGLKVPIIGSEVGQLELECEFDKLLCAGKKQYMGFYTYFQDGKPCIKEKKRFKGIPSNYIIPELYAHLLSGADKEAKIQFLKFRREWGSVKGYIENKTVKAT",2.2
6,T310H: TP-DNAP1 variant (protein) MDYKDKALNDLRNVYADFDSLPLDFRQILIKDRATLLQKEDVEKKILERQEDAKKYAEYLKQSEIPERISLPNIKRHKGVSISFEETSEDMVLEPRPFIFDGLNIRCFRRETIFSLKNKILNMVKESSSFKNVSRQSVSFMYFKIFNKGKVIASTKSVNIYEDKIDERLEDLCNNFDDVLKKIIDVTYGYESLFVSETYSYVIFYAKSIYFPQPRCVNNWGNNIPNILTFDSFKLFTANKNNVSCIKQCSRFLWQKDFNTLEEMIEYKNGNICIVTPQLHINDVRDIKSFNDIRLYSESPIKTFSVIDNHITYLFYFKEHLGVIFNITKSRHDRRVTKFSPLSKFSDVKNITVCFDIESYFDPEKESNQVNIPFICCASIIYNKVIGNIVDFEGRDCVAQMIEYVVDICGELNISSVELIAHNGGGYDFHYILSSMYNPAAIKNILIRNNSFISFNFAHDGVKFSVKDSYSFLLCSLANASKAFLNEETFKKTDFPHHDLKTADDLYKVYKEWSSVNTEINHVVEKEKLLITSEHIVNFTKNDKSKTLIEWSKDYCRNDVLVLSKVWLEFKNAVEDIFNCELVDQTMTLAGLSYKLFQANMPFDVELRHPNKEDYFNMREALIGGRCISVNGIYKDVLCLDVKSLYPASMAFYDQPYGSFKRVSSRPKDELGIYYVRVTPNRNNKSNFFPIRSHNKITYNNFEESTYIAWYTNVDIDIGLSEGHNIEYIPFDSYGNIGYSWSKKGKIFEKYIKDVLYKLKIKYEKQNNKVKRNVIKIIMNSLWGKFAQKWVNFEYFIKSEDDIDFESEEAYKIWDTDFMLIKKIKESTYSSKPIQNGVFTLSWARYHMKSIWDAGAKEGAECIYSDTDSIFVHKEHFKKNAKFMLNGLKVPIIGSEVGQLELECEFDKLLCAGKKQYMGFYTYFQDGKPCIKEKKRFKGIPSNYIIPELYAHLLSGADKEAKIQFLKFRREWGSVKGYIENKTVKAT,2.57
